Laboratory results taken from paper PMC12241074.

Target: mouse IgM (mouse)

GSDMD level (Western blot) in primary mouse AT2 treated for 16 h with iKP + r pIgR (0.5 ug/mL) + IgM (0.5 ug/mL), compared with non-treated cells: 326% | GSDMD-NT level (Western blot) in primary mouse AT2 treated for 16 h with iKP + r pIgR (0.5 ug/mL) + IgM (0.5 ug/mL), compared with non-treated cells: 13 fold
Substance: recombinant mouse polymeric immunoglobulin receptor (from UniProt O70570 19-771)
